Data as given in US20220112288A1 (published 2022).
Numbering of substitutions follows the chain as printed.

B1: 75110_01H18A (antibody, V domains shown)
VH: QVQLQQWGAGLLKPSETLSLTCAVYGGSFSGYYWSWIRQSPGKGLEWIGEINQSGSTNYNPSLKSRVTISVDTSKNQFSLKLSSVTAADTAVYYCARVINWFDSWGQGTLVTVSS
VL: DIQMTQSPSSVSASVGDRVTITCRASQGISSWLAWYQQKPGKAPKLLIYAASSFQSGVPSRFSGSGSGTDFTLTISSLQTEDFATYYCQQANSFPYTFGQGTRLEIK
notes: Tested as antibody purified from AlivaMab Mouse hybridoma supernatant (captured by anti-mouse IgG Fc)
B2: 75110_05B13A (antibody, V domains shown)
VH: QVLLEQWGAGLLKPSETLSLTCAVYGGSFSGYYWTWIRQPPGKGLEWIGEINHRGSTNYNPSLKSRVTISIDTSKNQFSLKVKSVTAADTAMYYCTRPDSNWFDPWGQGTLVTVSS
VL: B1 VL with G28D, S31N, Y49F, F54L, T80P, Y96L, Q100G, R103K, L104V
notes: as for B1
B3: 75110_04P08A (antibody, V domains shown)
VH: B1 VH with F29L, N76D, K81R, S83T, A96T, I99L, S104P, Q107R
VL: B1 VL with I21L, G28D, S31N, F54L, R103K
notes: as for B1
B4: 75110_03C01A (antibody, V domains shown)
VH: B1 VH with N76D, T109S
VL: B1 VL with K42N, A50D, R103K
notes: as for B1
B5: 75110_02K11A (antibody, V domains shown)
VH: QVQLQESGPGLVKPSQTLSLTCTVSGGSISSGFYYWTWIRQHPGKGLEWIGYISYSGNTYYNPSFKSRLTISVDTSKSQFSLKLSSVTAADTAVYYCARDRPSNFDAFDIWGQGTMVTVSS
VL: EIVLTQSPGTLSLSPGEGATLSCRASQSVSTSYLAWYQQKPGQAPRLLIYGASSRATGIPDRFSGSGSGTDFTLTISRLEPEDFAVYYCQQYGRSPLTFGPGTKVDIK
notes: as for B1
B6: 75110_04B08A (antibody, V domains shown)
VH: QVQLVESGGGVVQPGRSLRLSCTASGFNFINYGIHWVRQAPGKGLEWVTIIWYDGSKKYYADSVKGRFAISRDNSKNTLYLQMNSLRAEDTAVYYCAREDDWNDGLAYWGQGTLVTVSS
VL: AIQMTQSPSSLSASVGDRVTITCRASQDIRNDLGWYQQKPGKAPNLLIYAASNLQSGVPSRFSGSGSGTDFTLTISSLQPEDFATYYCLQDSNYPRTFGQGTKVEIK
notes: as for B1
B7: 75110_03I08A (antibody, V domains shown)
VH: QVQLQESGPGLVKPSETLSLTCTVSGGSISSYYWSWIRQPPGKGLEWIGYIYYSGSTNYNPSLKSRVTISVDTSKNQFSLKLSSVTAADTAVYYCAREGEQWFYGLDVWGQGTTVTVSS
VL: EIVLTQSPGTLSLSPGERATLSCRASQSVSSTYLAWYQQKPGQAPRLLIYGSSSRATGIPDRFSGSGSGTDFTLTISRLEPEDFAVYYCQQYGNSFPITFGQGTRLEIK
notes: as for B1
B8: 75110_04G02A (antibody, V domains shown)
VH: not shown
VL: DIVMTQSPDSLAVSLGERATINCKSSQSVLYSSNNKNYLAWYQQKPGQPPKLLFYWASARESGVPDRFSGSGSGTDFTLTISSLQAEDVALYYCQQYFGSFPTFGQGTKLEIK
notes: as for B1
B9: 75110_05E05A (antibody, V domains shown)
VH: QVQLQESGPGLVKPSETLSLTCTVSGGSIGSYYWSWIRQPAGKGLEWIGRIYTSGSTNYNPSLKSRVTMSFDTSKNQFSLKLNSVTAADTAVYYCATDGGVGDSLDYWGQGTLVTVSS
VL: DIVMTQTPLSLPVTPGEPASISCRSSQSLLDSDDGNTYLDWYLQKPGQSPQLLIYTLSYRASGVPDRFSGSGSGTDFTLKISRVEAEDVGVYYCMQHIEFPFTFGPGTKVDIK
notes: as for B1
B10: 75110_01J09A (antibody, V domains shown)
VH: EVQLVESGGGLVQPGGSLRLSCVASGFTFSSYWMSWVRQAPGKGLEWVANTKEDGSDKYYVDSVKGRFTICRDNAKNSLYLQMNSLRAEDTAVYYCAREGGQWLALDYWGQGTLVTVSS
VL: DIQMTQSPSSVSASVGDRVTINCRASQGISSWLAWYQQKPGKAPNLLIFGASSLQSGVPSRFSGSGFGTDFSLTITTLQPEDFATYHCQQANSFPWTFGQGTKVEIK
notes: as for B1
B11: 75110_02I16A (antibody, V domains shown)
VH: QVQLQQWGAGLLKPSETLSLTCDVYGGSFSGYYWTWIRQPPGKGLEWIGEINHSGTTNSNPSLKSRVTISVDTSKSQFSLRLSSVTAADTAVYFCTRELNWFDPWGQGTLVTVSS
VL: DIQMTQSPSSVSASVGDRVTITCRASQDIANWLAWYQQKPGKAPQLLIYAASSLLGGVPSRFSGSGSGADFTLTISSLHPEDFATYYCQQANSFPYTFGQGTKLEIK
notes: as for B1
B12: 75110_02E22A (antibody, V domains shown)
VH: QVQLQESGPGLVKPSETLSLTCTVSGGSISSFYWSWIRQPAGKGLEWIGRIYTSGSTNYNPSLKSRVTMSVDTSKNQFSLKLSSVTAADTAVYYCARELEKRNYYGMDVWGQGTTVTVSS
VL: DIQMTQSPSSLSASVGDRVTITCQASHDISNYLNWYQQKPGKAPKLLIFDASTLETGVPSRFSGSGSGTYFTFTIRSLQPEDIATYYCQQYDSLPLTFGGGTKVEIK
notes: as for B1
B13: 75110_04D20A (antibody, V domains shown)
VH: B12 VH with G26N, S31D, F32Y, V67I, K81E, K101R, R102Y, N103Y, Y104F, M107V
VL: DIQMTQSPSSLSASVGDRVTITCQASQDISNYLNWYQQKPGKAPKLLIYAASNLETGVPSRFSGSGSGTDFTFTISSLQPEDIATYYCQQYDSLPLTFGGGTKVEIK
notes: as for B1
B14: 75110_04H17A (antibody, V domains shown)
VH: QVQLQESGPGLVKPSETLSLTCTVSGGSISTYYWSWIRQSAGKGLEWIGRIYTSERPNYNPSLKSRVTMSVDTSKNQFSLKLNSVSAADTAVYYCARELERPYYYGMDVWGQGTTVTVSS
VL: B12 VL with I2V, D17G, H27Q, F49Y, D50Y, T53N, Y70D, R76S, I83F, S93N
notes: as for B1
B15: 75110_05A11A (antibody, V domains shown)
VH: EVQLVESGGGLVKPGGSLTLSCAASGFTFSNTWMSWVRQAPGKGLEWVGRIKSKIDGGTTDYAAPVKGRFTISRDDSKNTLYLQMNSLKTEDTAVYYCTTSGTYSSGWGLFDYWGQGTLVTVSS
VL: DIQMTQSPSSLSASVGDRVTITCQASQDISNYLNWYQQKPGKAPKLLIYDTSNLEAGVPSRFSGSGSGTHFTLTISSLQPEDIATYYCQQYDNLPFTFGGGTRVEIK
notes: as for B1
B16: 75110_02I18A (antibody, V domains shown)
VH: EVQVVESGGGLVQPGGSLRLSCAASGFTFSSYDMHWVRQATGKGLEWVSTIGTAGDTYYPGSVKGRFTISRENAKNSLYLQMNSLRAGDTAVYYCARGGYYYYGMDVWGQGTTVTVSS
VL: EIVLTQSPGTLSLSPGERATLSCRASQSVSSSYLAWYQQKPGQSPRLLIHGASSRATGIPDRVSGSGSGTDFTLTISRLEPEDFAVYYCQQYGSSPFTFGPGTKVDIK
notes: as for B1
B17: 75110_04G16A (antibody, V domains shown)
VH: B5 VH with G27D, F33Y, T37S, N58S, F65L, D74N, S78N, V87L
VL: B16 VL with S30G, S32T, S44A, H50Y, S53F, V63F, F97L
notes: as for B1
B18: 75110_04P06A (antibody, V domains shown)
VH: B16 VH with V4L, S31N, Y100D
VL: B16 VL with G9D, V29L, S32V, S44A, H50Y, V63F, S77N, A85V
notes: as for B1
B19: 75110_05F19A (antibody, V domains shown)
VH: B16 VH with V4L, S31N, M34V, A40P, Y101D, M105L
VL: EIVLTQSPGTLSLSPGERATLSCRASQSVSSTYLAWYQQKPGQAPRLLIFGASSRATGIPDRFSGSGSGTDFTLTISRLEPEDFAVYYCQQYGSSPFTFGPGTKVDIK
notes: as for B1
B20: 75110_01L08A (antibody, V domains shown)
VH: QVQLQESGPGLVKPSETLSLTCTVSGGSISHYYWSWIRQPPGKGLEWIGYIHYSGTTNYNPSLKSRVTISVDTSKNQLSLKLRSVTAADTAVYYCARDQGFSSGGMDVWGQGTTVTVSS
VL: not shown
notes: as for B1
B21: 75110_03I23A (antibody, V domains shown)
VH: QVQLQESGPGLVKPSETLSLTCTASGGSITSYYWNWIRQPAGKGLEWIGRIYTSGSTNYNPSLKSRVTMSVDTSKNQFSLKLSSVTAADTAVYYCARDPGYSDAFNIWGQGTMVTVSS
VL: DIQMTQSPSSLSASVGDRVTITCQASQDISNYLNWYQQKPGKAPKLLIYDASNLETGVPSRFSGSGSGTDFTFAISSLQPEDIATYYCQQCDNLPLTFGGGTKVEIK
notes: as for B1
B22: 75110_02E08A (antibody, V domains shown)
VH: QVQLQESGPGLVKPSETLSLTCTVSGGSISTYYWTWIRQPAGKGLEWIGRVYTSGDTNYNPSLKSRVAMSLDTSKNQFSLKLSSVTAADTAVYYCARDSGALYSWNYGDAFDIWGQGTMVTVSS
VL: DIQMTQSPSAMSASVGDRVTITCRASQDISNYLAWFQQKPGKVPKRLIYAASSLQSGVPSRFSGSGSGTEFTLTISSLQPEDFATYYCLQHNSYPRTFGQGTKVEIK
notes: as for B1

The binders below were run against T1, Recombinant human CD4 (R&D Systems, Cat. 10327-CD) (human, UniProt P01730 26-390, limits assumed) (assay: BLI Octet, mAb on anti-mouse Fc sensor, CD4 100/50/25 nM, 1:1 global fit;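 also: antibodies loaded at 10 µg/mL, an unrelated mouse-derived antibody served as internal reference control, association and dissociation phases fitted after Savitzky-Golay smoothing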).
T1 construct: Soluble analyte in the Octet assay

Compared with B1, B2 is 3-fold lower in Kd: 16 nM for the first, 5.4 nM for the second.

B3 and B4 are within 1.5-fold of each other in Kd: 3.6 nM for the first, 3 nM for the second.

B5 and B6 are within 1.5-fold of each other in Kd: 19 nM for the first, 17 nM for the second.

Going from B7 to B8, the Kd rises from 8.8 nM to 16 nM (1.8-fold). The first binds more tightly here.

Compared with B9, B10 is higher in Kd: < 0.001 nM for the first, 130 nM for the second. The first binds more tightly here.

First: B11
Second: B12
The Kd of the first is 14-fold lower: 3.5 nM for the first, 50 nM for the second.

Going from B13 to B14, the Kd falls from 8.9 nM to 0.25 nM (36-fold). The second binds more tightly here.

Compared with B15, B16 is 3.7-fold higher in Kd: 18 nM for the first, 66 nM for the second. The first binds more tightly here.

First: B17
Second: B18
The Kd of the first is higher: 5.3 nM for the first, < 0.001 nM for the second.

First: B19
Second: B20
The Kd of the first is lower: < 0.001 nM for the first, 4.1 nM for the second.

Going from B21 to B22, the Kd rises from < 0.001 nM to 2.2 nM. The first binds more tightly here.

In order of rising Response:
1. B16  0.05
2. B19  0.05
3. B18  0.07
4. B5  0.11
5. B22  0.11
6. B10  0.12
7. B7  0.14
8. B13  0.14
9. B14  0.15
10. B12  0.16
11. B8  0.17
12. B9  0.18
13. B21  0.18
14. B20  0.19
15. B11  0.22
16. B1  0.23
17. B3  0.23
18. B4  0.23
19. B17  0.23
20. B6  0.25
21. B15  0.27
22. B2  0.28

Compared with B1, B2 is 2.8-fold lower in koff: 0.0016 s⁻¹ for the first, 0.00058 s⁻¹ for the second.

B3 and B4 are within 1.5-fold of each other in koff: 0.0005 s⁻¹ for the first, 0.0004 s⁻¹ for the second.

Compared with B5, B6 is 2.6-fold higher in koff: 0.0014 s⁻¹ for the first, 0.0037 s⁻¹ for the second.

B7 and B8 are within 1.5-fold of each other in koff: 0.0011 s⁻¹ for the first, 0.0015 s⁻¹ for the second.

First: B9
Second: B10
The koff of the first is lower: < 1e-07 s⁻¹ for the first, 0.0048 s⁻¹ for the second.

First: B11
Second: B12
The koff of the first is 7.7-fold lower: 0.0004 s⁻¹ for the first, 0.0031 s⁻¹ for the second.

First: B13
Second: B14
The koff of the first is 44-fold higher: 0.0008 s⁻¹ for the first, 1.8e-05 s⁻¹ for the second.

Compared with B15, B16 is 21-fold lower in koff: 0.0018 s⁻¹ for the first, 8.6e-05 s⁻¹ for the second.

First: B17
Second: B18
The koff of the first is higher: 0.00047 s⁻¹ for the first, < 1e-07 s⁻¹ for the second.

First: B19
Second: B20
The koff of the first is lower: < 1e-07 s⁻¹ for the first, 0.0016 s⁻¹ for the second.

Compared with B21, B22 is higher in koff: < 1e-07 s⁻¹ for the first, 0.00061 s⁻¹ for the second.

In order of falling kon:
1. B20  390000 M⁻¹ s⁻¹
2. B22  280000 M⁻¹ s⁻¹
3. B6  220000 M⁻¹ s⁻¹
4. B3  140000 M⁻¹ s⁻¹
5. B4  140000 M⁻¹ s⁻¹
6. B7  130000 M⁻¹ s⁻¹
7. B11  120000 M⁻¹ s⁻¹
8. B2  110000 M⁻¹ s⁻¹
9. B1  99000 M⁻¹ s⁻¹
10. B15  97000 M⁻¹ s⁻¹
11. B8  90000 M⁻¹ s⁻¹
12. B13  90000 M⁻¹ s⁻¹
13. B17  89000 M⁻¹ s⁻¹
14. B21  80000 M⁻¹ s⁻¹
15. B5  74000 M⁻¹ s⁻¹
16. B14  73000 M⁻¹ s⁻¹
17. B12  63000 M⁻¹ s⁻¹
18. B10  37000 M⁻¹ s⁻¹
19. B9  34000 M⁻¹ s⁻¹
20. B18  24000 M⁻¹ s⁻¹
21. B19  19000 M⁻¹ s⁻¹
22. B16  1300 M⁻¹ s⁻¹
